The data set deals with MS2 coat protein. As to the kind of experiment: apparent KD of MS2 coat protein; designed switch direction (-1 OFF switch, 1 ON switch): -1; higher = weaker reporter binding. An outline of the steps: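 Designed RNA switches with common flanks were made on Illumina chips by stalled E. coli RNA polymerase. Titration with SNAP-549-labelled MS2 coat protein doubled from 0.7 or 1.5 nM up to 3 µM. Apparent KD is each design's median over clusters after curve-fitting normalised fluorescence.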

Where [1] appears, read: input ligand: microRNA oligo, concentration not stated.
The mark [2] stands for this setting: Eterna round: R95, input ligand: microRNA oligo, concentration not stated.
Where [3] appears, read: Eterna round: R95, input ligand: FMN 200 uM.
Where [4] appears, read: Eterna round: R95, input ligand: none.

As for “AUCCGACAUGAGGAUCACCCAUGUCAGGAUAUGGACUGACAUCGAAAGGAUGGAAGAACCAGAAGGGACUGGGC [Betiqu] (Eterna round: R96, puzzle: Exclusion 1)”, the “apparent KD of MS2 coat protein” value was 0.0717 µM (input ligand: FMN 200 uM), 0.0171 µM under setting [1] and 0.0201 µM (input ligand: none).

“UCGCUGCGAGGAUAUACAUGAGGAUCACCCAUGUACGGGUCCGGGUCUUUGUCGAUUGGUAGAAGGCGCAGUGA [JL Laongeedie mod 10] (puzzle: Exclusion 3)”: the “apparent KD of MS2 coat protein” value under setting [2] came to 0.0503 µM.

Take “UUUUACAUAGGAUAUAGUUGCUUUUACAUGAGGAUCACCCAUGUCUCUCCUCUCUCUCUUCUAGAAGGAUGUUUCU [JR_E5_Sub011] (Eterna round: R96, puzzle: Exclusion 5)”: the “apparent KD of MS2 coat protein” value was determined as 0.0553 µM (input ligand: FMN 200 uM), 0.0357 µM under setting [1] and 0.047 µM (input ligand: none).

“AUAAUGUGAGGAUAUCAGUCGACUAGCUUCGGCUAGUCGACUGAGAAGGUACAUGAGGAUCACCCAUGUGGUUC [E4/11-B1] (Eterna round: R97, puzzle: Exclusion 4)”: the “apparent KD of MS2 coat protein” value (input ligand: FMN 200 uM) is 0.885 µM and the “apparent KD of MS2 coat protein” value (input ligand: none) was 0.456 µM.

Regarding “AUGGUACAUGAGGAUCACCCAUGUUAGGAUAUCGCGUGUUCUAAAACUAAGAGAUACACGAGAAGGGACGACAU (puzzle: Exclusion 1)”, the “apparent KD of MS2 coat protein” value under setting [2] came to 0.0812 µM.

Consider “CUUCACCCACCAGAGCACACCCACAUACCUGCUCAGGUGACAUGAGGAUCACCCAUGUUUUUUGCCCGUCUUAUCUU [Tilevere] (puzzle: Sensor v3, turn-off variant 2)”, for which the “apparent KD of MS2 coat protein” value is, setting by setting: under setting [3], 0.0316 µM; under setting [2], 0.144 µM; under setting [4], 0.0339 µM.

Turning to “GCACGAUAUCAGGAUAUGACUAGCUUCGGCUAGUCAGAAGGGAUGACAUGAGGAUCACCCAUGUGAUCACGUGC [E6/1-B1] (Eterna round: R97, puzzle: Exclusion 6)”, the “apparent KD of MS2 coat protein” value runs as follows: (input ligand: FMN 200 uM) 0.0796 µM; (input ligand: none) 0.0605 µM.

For “GAUUAUGCGAGCUUUAGGGACAUGAGGAUCACCCAUGUUCGUCUUAUUGGUCUGAGUGCACUGACAUACCUAAAUCU [JMF 86] (puzzle: Sensor v3, turn-off variant 1)”, the “apparent KD of MS2 coat protein” value by setting is: under setting [3], 0.0194 µM; under setting [2], 0.0309 µM; under setting [4], 0.0199 µM.

Take “CCAUUCAGAGGAUAUGCGCAUAAAUAAGACUUUUUUUUUUAACAUGAGGAUCACCCAUGUAGAAGGCUGUAACC [Ex2 #46] (Eterna round: R97, puzzle: Exclusion 2)”: the “apparent KD of MS2 coat protein” value stood at 0.0246 µM (input ligand: FMN 200 uM) and 0.0248 µM (input ligand: none).

Consider “AUAAUACAUGUAGGAUAUGCGUGGCGAAGCUAUGCAGAAGGACAUGAGGAUCACCCAUGUGCUAGCGUCUGCGUACAGAUGCUA [JL eng1 1.35 mod 3] (Eterna round: R96, puzzle: Exclusion NG 1)”, for which the “apparent KD of MS2 coat protein” value turned out to be 0.31 µM (input ligand: FMN 200 uM), 0.021 µM under setting [1] and 0.0441 µM (input ligand: none).

Consider “GGUAUGCAGGCUUUAGGUAACAUGAGGAUCACCCAUGUAGCAGGUCGUAACCAGGUCAUUGGUUCUCAACGCUCGUU [Eternabot (L2) Solution 46] (Eterna round: R97, puzzle: Sensor, turn-off variant 1)”, for which the “apparent KD of MS2 coat protein” value (input ligand: FMN 200 uM) stood at 0.0314 µM and the “apparent KD of MS2 coat protein” value (input ligand: none) amounted to 0.0344 µM.

For the sequence “CUUGCACGACGAGGAUAUCGUAAACAUGAGGAUCACCCAUGUAGGUGGCGUCGUCCUCUAUCUUGCGAGAAGGCGUAAAAUUAA [Begeeda] (Eterna round: R96, puzzle: Exclusion NG 2)”, the “apparent KD of MS2 coat protein” value (input ligand: FMN 200 uM) was 0.0826 µM, the “apparent KD of MS2 coat protein” value under setting [1] came to 0.0471 µM and the “apparent KD of MS2 coat protein” value (input ligand: none) is 0.0394 µM.

With “AAUAACAAGCCGAUCCUAAACAUGAGGAUCACCCAUGUGCUCGUCUUGUAAAGUACUAUCACGAAAGUGAUAGUACA (puzzle: Sensor v3, turn-off variant 1)”, the “apparent KD of MS2 coat protein” value reads like this: under setting [3], 0.0163 µM; under setting [2], 0.345 µM; under setting [4], 0.0145 µM.

For “AUAUAGCGAGGAUAUACAUGAGGAUCACCCAUGUAGGUUCCGGGUUUUCCAGUAAAAUGUAGAAGGCGCAUGGA [EX3 B.5] (Eterna round: R97, puzzle: Exclusion 3)”, the “apparent KD of MS2 coat protein” value by setting is: (input ligand: FMN 200 uM) 0.0994 µM; (input ligand: none) 0.0446 µM.

For the sequence “GGAAAGCAAGGAUAUACAAGGAGAAGGAGGAAAGUAAAAGGACAUGAGGAUCACCCAUGUAGAAGGUGCGAGAG [JR_Exclu2_Sub039] (puzzle: Exclusion 2)”, the “apparent KD of MS2 coat protein” value was found to be 0.0319 µM under setting [3], 0.029 µM under setting [2] and 0.0435 µM under setting [4].

Regarding “UGUACUAUGCGAGCUGACUUGCGUAGUGCAGCAGGUGUAACAUGAGGAUCACCCAUGUCCUCAUUUGCUCGUCUUAA [Mat - Sensor v3 - Turn-off var 2 - D10] (puzzle: Sensor v3, turn-off variant 2)”, the “apparent KD of MS2 coat protein” value came to 0.458 µM under setting [3], 0.196 µM under setting [2] and 0.388 µM under setting [4].

For “CGAUGCUCGAGUCGACAUGAGGAUCACCCAUGUACAGUUAGUGAGGAUAUCGGAGACACAUAGUAUGAGAAGGCGCGAACGUGA [Ex NG3 #16] (Eterna round: R96, puzzle: Exclusion NG 3)”, the “apparent KD of MS2 coat protein” value is, setting by setting: (input ligand: FMN 200 uM) 0.0767 µM; under setting [1], 0.0414 µM; (input ligand: none) 0.0403 µM.

“AUAAUGUGAGGAUAUCAGUCGUACAGCUGCGGCUGUACGACUGAGAAGGCACAUGAGGAUCACCCAUGUGGUCA [E4/5-A3] (Eterna round: R97, puzzle: Exclusion 4)”: the “apparent KD of MS2 coat protein” value came to 0.0707 µM (input ligand: FMN 200 uM) and 0.672 µM (input ligand: none).

With “GCCGUACAAGGAUAUACAUGAGGAUCACCCAUGUGUCUCCUCGAGAGCAAACGGCUCUGUAGAAGGUGUCGUAA [EX3 C.20] (Eterna round: R97, puzzle: Exclusion 3)”, the “apparent KD of MS2 coat protein” value is 0.0165 µM (input ligand: FMN 200 uM) and 0.0156 µM (input ligand: none).

“AGUACUAUCACGAAAGUGAUAGUACAAAUAGCAAGUGAAACAUGAGGAUCACCCAUGUCCUCAUUUGCUCGUCUUAA [Mat - Sensor v2 -ver2- JL mod - D66] (Eterna round: R96, puzzle: Sensor v2, turn-off variant 2)”: the “apparent KD of MS2 coat protein” value runs as follows: (input ligand: FMN 200 uM) 0.0126 µM; under setting [1], 0.32 µM; (input ligand: none) 0.0143 µM.

“AGUACUAACACGAAAGUGUUAGUACAAUAAGCUUGUGAUACAUGAGGAUCACCCAUGUCCUCAUAAGCUCGUCUUAU [salish99_TOv2_r3_045] (puzzle: Sensor v3, turn-off variant 2)”: the “apparent KD of MS2 coat protein” value by setting is: under setting [3], 0.0247 µM; under setting [2], 0.652 µM; under setting [4], 0.0219 µM.

With “CAUGAUCUUCGGAAAAUGUACAUGAGGAUCACCCAUGUGACGAGUUACAUGAAAAACAAGCUUUUUGCUCGUCUUAU [Sensor v3 - Turn-off variant 1 - 10] (puzzle: Sensor v3, turn-off variant 1)”, the “apparent KD of MS2 coat protein” value is, setting by setting: under setting [3], 0.411 µM; under setting [2], 0.288 µM; under setting [4], 0.623 µM.

Regarding “GAUUAACAUGAGGAUCACCCAUGUGAGGAUAUGAACUUGCCCACUUACCCUUUAGAGUUUAGAAGGCGCAUUCU [1986#33] (Eterna round: R97, puzzle: Exclusion 1)”, the “apparent KD of MS2 coat protein” value is 0.0224 µM (input ligand: FMN 200 uM) and 0.0282 µM (input ligand: none).

For “UUUGAUUAAGUGAGGAUAUACUGUUUGUAUUGAUUGUAGAAGGUACAUGAGGAUCACCCAUGUUUAGUAUUUAU [JR_BME4_Sub037] (puzzle: Brourd's mod of Exclusion 4)”, the “apparent KD of MS2 coat protein” value under setting [2] is 0.0192 µM.

On to “GAGUACUGAGGAUAUACAUGAGGAUCACCCAUGUGUUCCAACUAGGAAUCUAGAAUAUGUAGAAGGCAGUGCUG [salish99_ex3_r4_702] (Eterna round: R97, puzzle: Exclusion 3)”, for which the “apparent KD of MS2 coat protein” value was determined as 0.0713 µM (input ligand: FMN 200 uM) and 0.123 µM (input ligand: none).

For “UUUAGUUCAGGAUAUGUAGACAUUAACAUGAGGAUCACCCAUGUAGAUCCUGAAUUGGCUACAGAAGGGAGCAUUU [Mod of Brourd 10 - Jieux - Exclusion 5] (Eterna round: R97, puzzle: Exclusion 5)”, the “apparent KD of MS2 coat protein” value (input ligand: FMN 200 uM) is 0.109 µM and the “apparent KD of MS2 coat protein” value (input ligand: none) came to 0.0284 µM.

“UACAUGAGGAUCACCCAUGUUUUGUCGUGUAUGGUAUUUAUCUAGGAUAUCAAUUUAUUUAGUUAUGAGAAGGAGAAUAUUAAU [JMF's solution 22] (Eterna round: R96, puzzle: Exclusion NG 3)”: the “apparent KD of MS2 coat protein” value runs as follows: (input ligand: FMN 200 uM) 0.0468 µM; under setting [1], 0.0277 µM; (input ligand: none) 0.0379 µM.

Consider “GUGGCAUGAGGAUAUCGAGGUUAGUACAUGAGGAUCACCCAUGUUAUCCAGGUGUCGGUUCGAGAAGGCAUGGCAC [LRO-Ex5-13] (puzzle: Exclusion 5)”, for which, under setting [2], the “apparent KD of MS2 coat protein” value was found to be 0.25 µM.

Turning to “ACCUCUAUCUAGGAUAUUGGAACCCGGUUAAAACAAGAAGGAGAUACAUGAGGAUCACCCAUGUUAACGAUGGA [Ereseninso] (puzzle: Exclusion 6)”, the “apparent KD of MS2 coat protein” value runs as follows: under setting [3], 0.0975 µM; under setting [2], 0.0233 µM; under setting [4], 0.0285 µM.

As to “GCACGGAGUGUAGGAUAUUAGUGCGAUUAGCACUGAGAAGGACAUGAGGAUCACCCAUGUUCCUCGAUAAAAUACCUUCCGUGC [Eli exng1 - 041] (Eterna round: R96, puzzle: Exclusion NG 1)”, the “apparent KD of MS2 coat protein” value came out at 0.0132 µM (input ligand: FMN 200 uM), 0.00759 µM under setting [1] and 0.0118 µM (input ligand: none).

These data come from the supplement of paper PMC9170038.
